From the supplement of paper PMC10065799, “High-throughput profiling of sequence recognition by tyrosine kinases and SH2 domains using bacterial peptide display” (eLife, 2023)

Biological target: Hck (UniProt P08631)
Assay: phosphorylation enrichment, bacterial display (enrichment ratio); higher = better substrate or ligand; peptides without Tyr show the background
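Further: 11-residue human phosphosite peptides and single-mutation variants displayed on the E. coli surface, counted by deep sequencing, each peptide's frequency after selection divided by its frequency in the unselected input library; frequency after pTyr selection over input frequency; kinase dosed for 20-30% of maximal phosphorylation in three min.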

Hck, sequence (P08631 whole entry, looked up): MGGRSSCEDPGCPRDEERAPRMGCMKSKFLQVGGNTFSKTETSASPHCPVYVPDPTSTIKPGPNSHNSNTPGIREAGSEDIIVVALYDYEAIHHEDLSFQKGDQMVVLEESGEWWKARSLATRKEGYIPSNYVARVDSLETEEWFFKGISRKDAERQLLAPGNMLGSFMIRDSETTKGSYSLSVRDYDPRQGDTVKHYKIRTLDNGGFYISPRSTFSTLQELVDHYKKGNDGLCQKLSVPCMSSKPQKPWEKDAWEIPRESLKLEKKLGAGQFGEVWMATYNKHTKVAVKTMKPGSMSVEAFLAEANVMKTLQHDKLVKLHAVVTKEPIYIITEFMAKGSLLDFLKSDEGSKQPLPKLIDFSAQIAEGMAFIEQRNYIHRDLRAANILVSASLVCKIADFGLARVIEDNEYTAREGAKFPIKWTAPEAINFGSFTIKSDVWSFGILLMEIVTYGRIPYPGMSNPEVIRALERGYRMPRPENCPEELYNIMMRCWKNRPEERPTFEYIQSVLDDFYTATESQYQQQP

Row | Sequence | phosphorylation enrichment
1 | DQNVEYKGTVS [FHL1_Y117_W122S] | 0.495
2 | NHQFDYTFDWT [CSNK1A1_Y294_YF] | 0.543
3 | PADCRYFAFPQ [GAMT_Y222_YF] | 0.733
4 | HNLPIYEGYAL [ACTA1_Y168_V165L] | 9.09
5 | EMFNPCFGLFE [NEDD4L_Y679_Y679C_YF] | 0.562
6 | MSRNLYSGDYY [DDR2_Y736] | 5.53
7 | PNAFIYVVQLP [L1CAM_Y420_A415P_YF] | 1.06
8 | KLKEKYEKDIA [HMGB1_Y155] | 0.473
9 | IFRASYFRKGG [ALK_Y1282_YF] | 0.674
10 | LADKPYTFEYY [FXN_Y118_D122Y] | 0.707
11 | KHMADYPDCKY [SOX11_Y113_Y116C] | 0.55
12 | RHLLRYLSWTV [CLCNKB_Y93_S88R] | 0.614
13 | GKTFTYRSVFF [ZNF80_Y200] | 0.374
14 | AVRVFYRKCPR [EPHB2_Y194] | 0.512
15 | QTEAPYRFIYM [PTPN11_Y511_Q510P] | 0.984
16 | FSCLPYGRLAY [SLC52A2_Y305] | 0.894
17 | RDWSLYFKIIE [KRT18_Y129_H128L] | 0.356
18 | WNDLDYMDSRR [GAA_Y407] | 0.471
19 | LFEDHYLLGTS [ASS1_Y87_R86H_YF] | 0.566
20 | TGFRPYVCPFD [YY1_Y383_D380Y_YF] | 0.691
21 | EKHGQYLIGHG [EPHB4_Y581_D576E] | 0.475
22 | DRLASSLDKVR [KRT10_Y160_Y160S] | 0.308
23 | KEKLCYVAPDF [ACTA1_Y220_L223P] | 0.489
24 | VTQEPYELYCE [CBL_Y368_Q367P] | 0.717
25 | NLRQQYNSPQE [UMPS_Y432_G429R] | 0.451
26 | RSAGKYDVFLI [MECP2_Y120_YF] | 0.714
27 | TFFQMYDKGLV [IARS2_Y231_YF] | 1.06
28 | AFLQTYAHEVS [PCDHGA5_Y753_S754A] | 0.506
29 | AEDKPYAELWM [MPI_Y46] | 1.44

Biological target: Jak2 (UniProt O60674)
Assay: as above

Jak2, sequence (O60674 whole entry, looked up): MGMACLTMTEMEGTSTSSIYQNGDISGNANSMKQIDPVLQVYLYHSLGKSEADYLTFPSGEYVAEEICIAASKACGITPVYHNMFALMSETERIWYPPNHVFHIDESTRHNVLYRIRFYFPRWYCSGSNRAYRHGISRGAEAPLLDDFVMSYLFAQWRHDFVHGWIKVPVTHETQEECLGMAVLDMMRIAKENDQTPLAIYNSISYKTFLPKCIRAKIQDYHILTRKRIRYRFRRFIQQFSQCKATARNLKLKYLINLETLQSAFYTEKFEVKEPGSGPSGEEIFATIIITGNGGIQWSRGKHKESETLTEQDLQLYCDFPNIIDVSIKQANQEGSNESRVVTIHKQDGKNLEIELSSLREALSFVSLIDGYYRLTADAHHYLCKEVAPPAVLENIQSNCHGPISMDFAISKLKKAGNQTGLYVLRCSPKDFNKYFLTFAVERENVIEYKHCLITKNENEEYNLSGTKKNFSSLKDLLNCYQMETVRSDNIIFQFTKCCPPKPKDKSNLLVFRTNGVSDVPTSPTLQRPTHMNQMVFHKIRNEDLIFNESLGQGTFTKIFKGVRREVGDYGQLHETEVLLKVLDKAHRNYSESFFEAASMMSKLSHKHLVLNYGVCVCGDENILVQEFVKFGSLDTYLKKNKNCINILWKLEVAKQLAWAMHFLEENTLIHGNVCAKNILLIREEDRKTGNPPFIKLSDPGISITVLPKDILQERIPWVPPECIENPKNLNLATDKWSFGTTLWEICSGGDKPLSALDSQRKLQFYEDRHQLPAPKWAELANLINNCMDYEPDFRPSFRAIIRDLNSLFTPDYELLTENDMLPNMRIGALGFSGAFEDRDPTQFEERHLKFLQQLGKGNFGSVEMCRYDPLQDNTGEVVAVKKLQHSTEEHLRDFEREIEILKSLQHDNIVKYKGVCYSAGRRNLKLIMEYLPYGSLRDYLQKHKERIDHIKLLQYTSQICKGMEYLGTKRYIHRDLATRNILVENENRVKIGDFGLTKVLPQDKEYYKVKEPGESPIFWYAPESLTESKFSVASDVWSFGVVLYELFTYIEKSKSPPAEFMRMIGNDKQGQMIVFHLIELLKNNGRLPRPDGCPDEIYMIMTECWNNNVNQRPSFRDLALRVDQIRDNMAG

Row | Sequence | phosphorylation enrichment
30 | DQNVEYKGTVS [FHL1_Y117_W122S] | 0.618
31 | NHQFDYTFDWT [CSNK1A1_Y294_YF] | 1.08
32 | PADCRYFAFPQ [GAMT_Y222_YF] | 2.66
33 | HNLPIYEGYAL [ACTA1_Y168_V165L] | 0.566
34 | EMFNPCFGLFE [NEDD4L_Y679_Y679C_YF] | 1.41
35 | MSRNLYSGDYY [DDR2_Y736] | 1.64
36 | PNAFIYVVQLP [L1CAM_Y420_A415P_YF] | 1.26
37 | KLKEKYEKDIA [HMGB1_Y155] | 0.784
38 | IFRASYFRKGG [ALK_Y1282_YF] | 1.11
39 | LADKPYTFEYY [FXN_Y118_D122Y] | 1.25
40 | KHMADYPDCKY [SOX11_Y113_Y116C] | 1.07
41 | RHLLRYLSWTV [CLCNKB_Y93_S88R] | 0.982
42 | GKTFTYRSVFF [ZNF80_Y200] | 0.744
43 | AVRVFYRKCPR [EPHB2_Y194] | 0.7
44 | QTEAPYRFIYM [PTPN11_Y511_Q510P] | 1.22
45 | FSCLPYGRLAY [SLC52A2_Y305] | 0.782
46 | RDWSLYFKIIE [KRT18_Y129_H128L] | 1.09
47 | WNDLDYMDSRR [GAA_Y407] | 1.4
48 | LFEDHYLLGTS [ASS1_Y87_R86H_YF] | 1.15
49 | TGFRPYVCPFD [YY1_Y383_D380Y_YF] | 1.12
50 | EKHGQYLIGHG [EPHB4_Y581_D576E] | 0.555
51 | DRLASSLDKVR [KRT10_Y160_Y160S] | 0.473
52 | KEKLCYVAPDF [ACTA1_Y220_L223P] | 1.18
53 | VTQEPYELYCE [CBL_Y368_Q367P] | 0.999
54 | NLRQQYNSPQE [UMPS_Y432_G429R] | 0.592
55 | RSAGKYDVFLI [MECP2_Y120_YF] | 0.775
56 | TFFQMYDKGLV [IARS2_Y231_YF] | 1.03
57 | AFLQTYAHEVS [PCDHGA5_Y753_S754A] | 0.786
58 | AEDKPYAELWM [MPI_Y46] | 1.09
